Experimental data taken from patent US20190185537A1 (AstraZeneca / MedImmune, published 2019).
Where two headings read alike, the source gives them in different places. Numbered stars: 1 amine (or outer) side, 2 acyl side, 3 side chain; on linkers, the order of the positions; unused ones are H or OH. Side chains are listed from the residue outwards. Ends that are not written are not given here. * marks the point of attachment. γGlu = O=C(O)[C@H](CCC(=O)[*:2])N[*:1]; Palmitoyl = CCCCCCCCCCCCCCCC(=O)*

T1: human glucose-dependent insulinotropic peptide (gastric inhibitory polypeptide) receptor (human, UniProt P48546 22-466)
T1 sequence (looked up): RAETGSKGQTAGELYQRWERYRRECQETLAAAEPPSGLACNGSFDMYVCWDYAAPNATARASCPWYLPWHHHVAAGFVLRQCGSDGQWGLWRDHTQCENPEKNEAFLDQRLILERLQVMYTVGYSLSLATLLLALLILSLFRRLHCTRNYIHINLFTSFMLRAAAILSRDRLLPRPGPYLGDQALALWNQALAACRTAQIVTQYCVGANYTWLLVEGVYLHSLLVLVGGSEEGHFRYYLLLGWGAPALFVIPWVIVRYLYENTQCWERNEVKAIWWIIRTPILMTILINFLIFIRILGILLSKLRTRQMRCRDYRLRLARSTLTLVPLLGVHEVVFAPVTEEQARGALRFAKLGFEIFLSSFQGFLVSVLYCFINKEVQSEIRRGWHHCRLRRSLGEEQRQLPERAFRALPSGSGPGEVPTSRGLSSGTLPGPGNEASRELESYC

T2: mouse GLP-1 receptor (mouse, UniProt O35659 22-463)
T2 sequence (looked up): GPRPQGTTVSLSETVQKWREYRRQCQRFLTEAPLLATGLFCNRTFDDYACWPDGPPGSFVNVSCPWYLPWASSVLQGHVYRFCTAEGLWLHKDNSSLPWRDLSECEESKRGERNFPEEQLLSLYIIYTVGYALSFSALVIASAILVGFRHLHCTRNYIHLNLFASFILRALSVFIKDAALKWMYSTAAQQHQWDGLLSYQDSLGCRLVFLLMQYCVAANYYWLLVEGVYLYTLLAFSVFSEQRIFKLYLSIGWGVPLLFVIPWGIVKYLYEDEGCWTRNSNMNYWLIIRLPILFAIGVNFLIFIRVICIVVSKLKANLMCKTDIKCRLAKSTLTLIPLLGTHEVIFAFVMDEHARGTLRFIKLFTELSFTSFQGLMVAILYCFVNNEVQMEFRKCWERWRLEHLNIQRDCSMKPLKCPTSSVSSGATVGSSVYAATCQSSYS

T3: rat GLP-1 receptor (rat, UniProt P32301 22-463)
T3 sequence (looked up): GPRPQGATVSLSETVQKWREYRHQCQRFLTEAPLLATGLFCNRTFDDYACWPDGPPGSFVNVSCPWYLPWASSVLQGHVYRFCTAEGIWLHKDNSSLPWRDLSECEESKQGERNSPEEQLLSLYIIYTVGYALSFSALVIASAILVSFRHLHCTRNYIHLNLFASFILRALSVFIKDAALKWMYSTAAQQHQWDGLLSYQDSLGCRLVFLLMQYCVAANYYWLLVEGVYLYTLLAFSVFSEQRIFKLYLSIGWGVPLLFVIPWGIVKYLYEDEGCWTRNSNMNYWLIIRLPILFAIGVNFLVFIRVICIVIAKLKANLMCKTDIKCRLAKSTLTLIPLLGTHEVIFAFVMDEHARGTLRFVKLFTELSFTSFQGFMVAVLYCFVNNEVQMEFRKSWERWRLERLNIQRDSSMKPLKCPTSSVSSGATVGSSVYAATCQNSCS

T4: human glucose-dependent insulinotropic peptide (gastric inhibitory polypeptide) receptor (human) (UniProt P48546)
T4 sequence (looked up): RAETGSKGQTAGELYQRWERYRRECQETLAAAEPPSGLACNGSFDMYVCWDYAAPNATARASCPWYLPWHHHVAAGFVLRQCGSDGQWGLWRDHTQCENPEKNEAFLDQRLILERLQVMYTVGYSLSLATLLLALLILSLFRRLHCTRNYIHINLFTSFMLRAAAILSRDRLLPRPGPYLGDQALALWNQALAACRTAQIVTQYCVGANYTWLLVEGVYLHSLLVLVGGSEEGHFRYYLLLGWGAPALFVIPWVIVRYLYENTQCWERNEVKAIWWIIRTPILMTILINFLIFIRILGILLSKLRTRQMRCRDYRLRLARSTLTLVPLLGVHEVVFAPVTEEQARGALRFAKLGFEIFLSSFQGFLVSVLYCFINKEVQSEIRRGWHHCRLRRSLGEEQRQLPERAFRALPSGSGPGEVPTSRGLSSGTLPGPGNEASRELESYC


Experiments:
human GLP-1 receptor [1] = molecular target: T5, human GLP-1 receptor (human, UniProt P43220 24-463); assay: cell-based or functional assay
human glucagon receptor [2] = molecular target: T6, human glucagon receptor (human, UniProt P47871 26-477); assay: cell-based or functional assay
[3] = molecular target: T1, human glucose-dependent insulinotropic …; assay: cell-based or functional assay
human GLP-1 receptor [4] = molecular target: T5, human GLP-1 receptor; assay: cell-based or functional assay; remark: listed apart in the source
mouse GLP-1 receptor = molecular target: T2, mouse GLP-1 receptor; assay: cell-based or functional assay
human glucagon receptor [5] = molecular target: T6, human glucagon receptor; assay: cell-based or functional assay; remark: listed apart in the source
mouse glucagon receptor = mouse glucagon receptor (mouse, UniProt Q61606 27-485); assay: cell-based or functional assay
rat glucagon receptor = rat glucagon receptor (rat, UniProt P30082 27-485); assay: cell-based or functional assay
rat GLP-1 receptor = molecular target: T3, rat GLP-1 receptor; assay: cell-based or functional assay
human GLP-1 receptor [6] = molecular target: T5, human GLP-1 receptor; assay: cell-based or functional assay; remark: listed apart in the source
human glucagon receptor [7] = molecular target: T6, human glucagon receptor; assay: cell-based or functional assay; remark: listed apart in the source
[8] = molecular target: T1, human glucose-dependent insulinotropic …; assay: cell-based or functional assay; remark: listed apart in the source
human GLP-1 receptor [9] = molecular target: T5, human GLP-1 receptor; assay: cell-based or functional assay; remark: listed apart in the source
[10] = molecular target: human serum albumin (human) (UniProt P02768); assay: calculated from the variation in cAMP generation with the HSA concentration
[11] = molecular target: human GLP-1 receptor (human) (UniProt P43220); assay: cell-based or functional assay
[12] = molecular target: T4, human glucose-dependent insulinotropic peptide (gastric inhibitory polypeptide) receptor (human); assay: cell-based or functional assay
[13] = molecular target: human glucagon receptor (human) (UniProt P47871); assay: cell-based or functional assay
Sequence of human glucagon receptor (human) (P47871 26-477): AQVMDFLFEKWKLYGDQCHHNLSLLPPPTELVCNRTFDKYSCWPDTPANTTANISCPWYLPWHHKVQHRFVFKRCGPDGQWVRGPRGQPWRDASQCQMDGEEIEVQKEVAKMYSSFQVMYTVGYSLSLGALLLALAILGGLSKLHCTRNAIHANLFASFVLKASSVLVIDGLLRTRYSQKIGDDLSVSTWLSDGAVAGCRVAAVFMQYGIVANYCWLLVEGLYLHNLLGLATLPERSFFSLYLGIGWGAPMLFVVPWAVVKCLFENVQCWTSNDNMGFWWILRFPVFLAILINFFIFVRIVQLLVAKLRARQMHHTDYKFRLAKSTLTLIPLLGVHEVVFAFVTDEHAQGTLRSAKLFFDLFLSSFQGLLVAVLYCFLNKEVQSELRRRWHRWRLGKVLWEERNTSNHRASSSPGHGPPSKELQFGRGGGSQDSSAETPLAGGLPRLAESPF

Sequence of mouse glucagon receptor (Q61606 27-485): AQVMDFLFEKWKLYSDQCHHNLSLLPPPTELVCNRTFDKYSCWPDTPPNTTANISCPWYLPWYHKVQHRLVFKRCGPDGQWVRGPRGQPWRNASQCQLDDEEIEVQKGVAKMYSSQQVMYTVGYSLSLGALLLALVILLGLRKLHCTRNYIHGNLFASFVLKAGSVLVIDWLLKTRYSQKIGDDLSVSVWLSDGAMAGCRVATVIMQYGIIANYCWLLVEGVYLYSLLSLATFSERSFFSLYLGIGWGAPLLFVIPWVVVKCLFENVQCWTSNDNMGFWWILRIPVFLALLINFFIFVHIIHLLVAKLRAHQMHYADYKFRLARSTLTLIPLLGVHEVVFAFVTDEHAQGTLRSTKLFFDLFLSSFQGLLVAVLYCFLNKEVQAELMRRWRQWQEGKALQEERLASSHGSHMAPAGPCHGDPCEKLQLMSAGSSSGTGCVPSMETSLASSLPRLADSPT
T6 sequence (P47871 26-477): as the sequence (P47871 26-477) above
Sequence of rat glucagon receptor (P30082 27-485): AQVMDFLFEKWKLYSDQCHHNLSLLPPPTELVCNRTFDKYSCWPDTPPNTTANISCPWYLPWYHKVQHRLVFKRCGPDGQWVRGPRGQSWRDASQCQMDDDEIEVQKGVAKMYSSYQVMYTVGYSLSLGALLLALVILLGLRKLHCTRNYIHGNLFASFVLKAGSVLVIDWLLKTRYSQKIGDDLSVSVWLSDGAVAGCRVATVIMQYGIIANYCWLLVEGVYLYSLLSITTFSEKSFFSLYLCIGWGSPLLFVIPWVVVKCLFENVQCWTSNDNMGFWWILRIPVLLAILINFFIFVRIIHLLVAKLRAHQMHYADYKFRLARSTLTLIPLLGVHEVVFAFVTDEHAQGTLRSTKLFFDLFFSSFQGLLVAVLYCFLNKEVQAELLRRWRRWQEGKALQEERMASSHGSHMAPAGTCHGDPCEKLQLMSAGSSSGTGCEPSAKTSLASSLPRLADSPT
Sequence of human GLP-1 receptor (human) (P43220 24-463): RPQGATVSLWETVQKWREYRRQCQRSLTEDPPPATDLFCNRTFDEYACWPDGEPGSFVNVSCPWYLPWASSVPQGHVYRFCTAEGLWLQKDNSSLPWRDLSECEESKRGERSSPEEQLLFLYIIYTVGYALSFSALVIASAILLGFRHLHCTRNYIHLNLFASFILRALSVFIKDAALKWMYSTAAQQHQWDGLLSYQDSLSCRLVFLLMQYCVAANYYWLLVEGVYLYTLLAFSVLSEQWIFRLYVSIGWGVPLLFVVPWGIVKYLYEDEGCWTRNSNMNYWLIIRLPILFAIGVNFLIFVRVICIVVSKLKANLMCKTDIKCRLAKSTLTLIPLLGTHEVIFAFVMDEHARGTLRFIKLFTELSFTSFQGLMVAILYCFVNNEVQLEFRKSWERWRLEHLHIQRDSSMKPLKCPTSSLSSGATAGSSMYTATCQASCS
Sequence of human serum albumin (human) (P02768 25-609 limits assumed): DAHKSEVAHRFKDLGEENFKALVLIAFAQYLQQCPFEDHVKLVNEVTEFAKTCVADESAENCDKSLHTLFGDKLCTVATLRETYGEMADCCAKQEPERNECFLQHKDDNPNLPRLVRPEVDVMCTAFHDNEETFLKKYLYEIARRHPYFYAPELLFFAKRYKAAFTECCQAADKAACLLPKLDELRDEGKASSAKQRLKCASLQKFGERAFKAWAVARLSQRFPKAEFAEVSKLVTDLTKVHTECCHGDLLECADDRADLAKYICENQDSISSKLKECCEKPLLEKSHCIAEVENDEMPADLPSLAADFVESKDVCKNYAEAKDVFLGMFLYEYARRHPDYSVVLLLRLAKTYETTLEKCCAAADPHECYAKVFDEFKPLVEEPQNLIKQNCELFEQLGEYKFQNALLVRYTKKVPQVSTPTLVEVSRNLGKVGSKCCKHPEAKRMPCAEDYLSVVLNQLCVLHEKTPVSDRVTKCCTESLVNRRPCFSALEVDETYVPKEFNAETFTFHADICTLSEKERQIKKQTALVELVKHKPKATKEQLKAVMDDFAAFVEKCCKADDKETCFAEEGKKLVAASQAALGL

| Binder | cAMP EC50 (assay 1) (human GLP-1 receptor [1]) [nM] | cAMP EC50 (assay 1) (human glucagon receptor [2]) [nM] | cAMP EC50 (assay 1) [3] [nM] | cAMP EC50 (assay 2, 4.4% human serum albumin) (human GLP-1 receptor [4]) [nM] | cAMP EC50 (assay 2, 3.2% mouse serum albumin) (mouse GLP-1 receptor) [nM] | cAMP EC50 (assay 2, 4.4% human serum albumin) (human glucagon receptor [5]) [nM] | cAMP EC50 (assay 2, 3.2% mouse serum albumin) (mouse glucagon receptor) [nM] | cAMP EC50 (assay 2, 3.2% rat serum albumin) (rat glucagon receptor) [nM] | cAMP EC50 (assay 2, 3.2% rat serum albumin) (rat GLP-1 receptor) [nM] | cAMP EC50 (assay 1) (human GLP-1 receptor [6]) [nM] | cAMP EC50 (assay 1) (human glucagon receptor [7]) [nM] | cAMP EC50 (assay 1) [8] [nM] | EC50 at the GLP1R at 0% HSA (calculated) (human GLP-1 receptor [9]) [nM] | free peptide at 4.4% HSA [10] [%] | cAMP EC50 (assay 1) [11] [nM] | cAMP EC50 (assay 1) [12] [nM] | cAMP EC50 (assay 1) [13] [nM] |
| --- | --- | --- | --- | --- | --- | --- | --- | --- | --- | --- | --- | --- | --- | --- | --- | --- | --- |
| HSQGTFTSDKSKYLEGQAAKEFIAWLEKGR (X10 = K(gE-palm); C-terminal amide) [G812] | 0.011 | 0.00817 | 2.7 | 0.316 | 0.13 | 0.764 | 0.947 | 14.1 | 0.019 |  |  |  |  |  |  |  |  |
| HSQGTFTSDKSSYLDSRRARDFVAWLEAGG (X10 = K(gE-palm); C-terminal amide) [G796] | 0.013 | 0.00176 | 14 | 0.14 | 0.13 | 0.053 | 0.034 | 2 | 0.023 | 0.014 | 0.00181 | 17.4 |  |  |  |  |  |
| HSQGTFTSDYSKK([γGlu-Palmitoyl])LDSERARDFVAWLVAGG-NH2 (N-terminus assumed; SMILES CCCCCCCCCCCCCCCC(=O)N[C@@H](CCC(=O)NCCCC[C@H](NC(=O)[C@H](CCCCN)NC(=O)[C@H](CO)NC(=O)[C@H](Cc1ccc(O)cc1)NC(=O)[C@H](CC(=O)O)NC(=O)[C@H](CO)NC(=O)[C@@H](NC(=O)[C@H](Cc1ccccc1)NC(=O)[C@@H](NC(=O)CNC(=O)[C@H](CCC(N)=O)NC(=O)[C@H](CO)NC(=O)[C@@H](N)Cc1c[nH]cn1)[C@@H](C)O)[C@@H](C)O)C(=O)N[C@@H](CC(C)C)C(=O)N[C@@H](CC(=O)O)C(=O)N[C@@H](CO)C(=O)N[C@@H](CCC(=O)O)C(=O)N[C@@H](CCCNC(=N)N)C(=O)N[C@@H](C)C(=O)N[C@@H](CCCNC(=N)N)C(=O)N[C@@H](CC(=O)O)C(=O)N[C@@H](Cc1ccccc1)C(=O)N[C@H](C(=O)N[C@@H](C)C(=O)N[C@@H](Cc1c[nH]c2ccccc12)C(=O)N[C@@H](CC(C)C)C(=O)N[C@H](C(=O)N[C@@H](C)C(=O)NCC(=O)NCC(N)=O)C(C)C)C(C)C)C(=O)O) [G730] | 0.018 | 0.00623 | 45 | 0.455 | 1.1 | 0.402 | 5.46 | 45.1 | 0.081 | 0.0395 | 0.015 | 56.6 | 0.007 | 0.85 |  |  |  |
| HSQGTFTSDYSKYLDSRRAQDFVQWLVAGGPSSGAPPPSK(Palmitoyl)-NH2 [g320] |  |  |  |  |  |  |  |  |  |  |  |  |  |  | 0.00938 | 1.01 | 0.0032 |
